Consider 2 molecules from US20170240920A1 (UCL BUSINESS, published 2017).

No end group written: not given here.

This experiment has as its target T1, Streptavidin (Streptomyces avidinii, UniProt P22629 37-163, limits assumed).
T1 construct: The same protein was used as APC conjugate (flow cytometry) and on beads (sorting, virus capture); also called Streptavidin-APC; Streptavidin conjugated to Allophycocyanin
As to the kind of experiment: flow cytometry, Streptavidin-APC staining of transfected 293T cells. Background: Flow cytometry measures light scatter and fluorescence of single cells or particles in a stream.

T1 sequence (P22629 37-163 limits assumed): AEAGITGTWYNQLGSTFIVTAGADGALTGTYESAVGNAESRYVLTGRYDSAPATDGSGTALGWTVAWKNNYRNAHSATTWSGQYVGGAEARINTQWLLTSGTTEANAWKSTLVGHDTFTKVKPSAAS

B1: StreptagII-d8-x2 on a GPI anchor (other)
chain: WSHPQFEKSGGGGSPAPRPPTPAPTIASWSHPQFEK
modifications: also: GPI anchor at C-terminal side, attached after further residues not given here
notes: Two copies of the tag separated by a CD8-based linker; expressed on the surface of transfected HEK 293T cells; also called StreptagII GPI (x2); Streptagll-d8-x2; not shown: residues between the second tag and the GPI attachment site
As to B1, the binding result was “binds”.

B2: Flankedccstreptag-d8-x2-GPI (other)
chain: ECHPQGPPCIEGRKSSGGGGSPAPRPPTPAPTIASECHPQGPPCIEGRKS
modifications: cysteine pairing not given here; also: GPI anchor at C-terminal side, attached after further residues not given here
notes: Two copies of the tag separated by a CD8-based linker; also called MP13024; Flankedccstreptag GPI (x2); not shown: residues between the second tag and the GPI attachment site
Take B2: the binding result is listed as “binds”.
